Results reported in doi:10.1101/2023.02.21.529347v1.

Experiments:
Assay in all cases: purified protein
[1] = substrate: C=C(C)[C@@H]1CC=C(C)C(=O)C1; conditions: co-substrate F420H2; apparent value
[2] = substrate: CC1=CCCC1=O; conditions: co-substrate F420H2; apparent value
[3] = substrate: C=C(C)[C@H]1CC=C(C)C(=O)C1; conditions: co-substrate F420H2; apparent value
[4] = substrate: CC1=CC(=O)CC1; conditions: co-substrate F420H2; apparent value
[5] = substrate: CC1=CC(=O)CCC1; conditions: co-substrate F420H2, apparent value
[6] = substrate: CC1=CCCCC1=O; conditions: co-substrate F420H2; apparent value
[7] = substrate: CC1(C)[C@H]2CC=C(C=O)[C@@H]1C2; conditions: co-substrate F420H2; apparent value
[8] = substrate: CC1=CC(=O)CC(C)(C)C1=O; conditions: co-substrate F420H2; apparent value; fit with substrate inhibition

| Protein | Km [1] [mM] | kcat [1] [s⁻¹] | Km [2] [mM] | kcat [2] [s⁻¹] | Km [3] [mM] | kcat [3] [s⁻¹] | Km [4] [mM] | kcat [4] [s⁻¹] | Km ([5]; fit with substrate inhibition) [mM] | kcat ([5]; fit with substrate inhibition) [s⁻¹] | Km [6] [mM] | kcat [6] [s⁻¹] | Km [7] [mM] | kcat [7] [s⁻¹] | Km [8] [mM] | kcat [8] [s⁻¹] | Km [5] [mM] | kcat [5] [s⁻¹] |
| --- | --- | --- | --- | --- | --- | --- | --- | --- | --- | --- | --- | --- | --- | --- | --- | --- | --- | --- |
| MSMEG_2850 (Mycolicibacterium smegmatis MC2 155) (protein) MTEAIDWDQMNNQVIKEFRETGGKAGGLFEGSPLVLVHHTGAKSGKQRIAPLVPLLDGDRIYIFGSKGGADSHPDWYHNLVANPDTVVELGTETFPVKARVLTGAERDEIYAKQVAVAPQFGDYQRKTTRVIPVVELQRV | 1.62 ± 0.18 | 0.08 ± 0.003 | 7.67 ± 3.21 | 0.16 ± 0.04 | 2.07 ± 0.39 | 0.05 ± 0.004 | 4.30 ± 0.74 | 0.10 ± 0.008 | 6.73 ± 6.84 | 4.02 ± 3.30 | 9.18 ± 2.22 | 1.59 ± 0.23 | 0.58 ± 0.07 | 0.16 ± 0.005 | 0.10 ± 0.008 | 1.35 ± 0.028 | – | – |
| MSMEG_2027 (Mycolicibacterium smegmatis MC2 155) (protein) MTDAELSPTDWVREQTERILEQGTTDGVHVLDRPIVLFTTTGAKSGKKRYVPLMRVEENGKYAMVASKGGDPKHPSWYFNVKANPTVSVQDGDKVLPDRTARELEGEEREHWWKLAVEAYPPYAEYQTKTDRLIPVFIVE | 1.29 ± 0.32 | 0.11 ± 0.008 | 1.00 ± 0.13 | 0.55 ± 0.02 | 1.30 ± 0.28 | 0.09 ± 0.006 | 0.12 ± 0.05 | 0.01 ± 0.001 | – | – | 2.56 ± 0.48 | 0.62 ± 0.05 | 0.31 ± 0.03 | 0.74 ± 0.017 | 3.88 ± 0.68 | 0.39 ± 0.05 | 4.29 ± 3.46 | 1.10 ± 0.41 |
